According to publication PMC10002811, “Timed material self-assembly controlled by circadian clock proteins” (ArXiv, 2024):
Positions count from the first letter of the chain named. In names and notes the source's numbering stands. One block for each binder: values may come before it.

Columns and labels:
Conditions in all cases: both partners purified
[1] = biological target: T1, pS KaiC (KaiC-EA; S431E, T432A) (UniProt Q79PF4 1-519, S431E | T432A); test: fluorescence polarisation; colloid-linking conditions: 5.5 μM KaiB (55% b-KaiB), 6.5 μM KaiC (wild-type, pT or pS), 2.2 μM KaiA, 0.4 μM FITC-labeled KaiB K25C; time course
T1 construct: KaiC, circadian clock protein of cyanobacteria, phosphomimetic of the pS431 (night) state; also called pS KaiC mutant; source: recombinantly expressed and purified as previously described
T1 sequence (looked up): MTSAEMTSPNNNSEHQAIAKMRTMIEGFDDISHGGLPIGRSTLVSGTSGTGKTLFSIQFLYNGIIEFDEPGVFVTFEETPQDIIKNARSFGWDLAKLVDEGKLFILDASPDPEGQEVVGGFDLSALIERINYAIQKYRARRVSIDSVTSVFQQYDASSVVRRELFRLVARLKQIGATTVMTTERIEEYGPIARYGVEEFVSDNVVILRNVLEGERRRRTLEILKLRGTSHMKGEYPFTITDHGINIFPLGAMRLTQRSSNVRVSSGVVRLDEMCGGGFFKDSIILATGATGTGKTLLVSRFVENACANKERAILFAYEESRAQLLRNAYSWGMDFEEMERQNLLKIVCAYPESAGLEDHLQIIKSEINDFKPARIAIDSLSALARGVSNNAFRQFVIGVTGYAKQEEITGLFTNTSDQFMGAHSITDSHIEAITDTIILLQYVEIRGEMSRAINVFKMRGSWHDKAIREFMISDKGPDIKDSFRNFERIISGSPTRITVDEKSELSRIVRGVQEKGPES

[2] = biological target: T2, KaiC (wild-type) (UniProt Q79PF4 1-519); test: fluorescence polarisation; standard oscillator reaction: 1.5 μM KaiA, 3.5 μM KaiC, 3.5 μM KaiB at different ratios of KaiB and b-KaiB, 0.2 μM FITC-labeled KaiB K25C; time course over 144 hrs
T2 construct: KaiC, circadian clock protein of cyanobacteria; hexameric ring; In reactions with KaiA the phosphorylation of S431 and T432 cycles over about 24 h; also called WT KaiC; wild-type KaiC; source: recombinantly expressed and purified as previously described
T2 sequence (looked up): T1 sequence (looked up) with E431S, A432T

[3] = biological target: T2, KaiC (wild-type); test: pull-down; 6.5 μM KaiC (wild-type, pT or pS) and 5.5 μM KaiB (55% b-KaiB, 45% unlabeled KaiB) in Kai buffer (10% glycerol, 150 mM NaCl, 20 mM Tris-HCl pH 8.0, 5 mM MgCl2, 0.5 mM EDTA, 1 mM ATP); 8 hr at 30°C; b-KaiB and partners removed with streptavidin-coated magnetic beads; supernatant analysed by SDS-PAGE
[4] = biological target: T1, pS KaiC (KaiC-EA; S431E, T432A); test: as above

binding result [1]: binds
binding result [2]: binds
B1: FITC-labeled KaiB K25C (natural protein, UniProt Q79PF5 1-102, looked up)
chain: MSPRKTYILKLYVAGNTPNSVRALCTLKNILEVEFQGVYALKVIDVLKNPQLAEEDKILATPTLAKVLPLPVRRIIGDLSDREKVLIGLDLLYGELQDSDDF
modifications: FITC label
notes: KaiB, circadian clock protein of cyanobacteria, with K25C; also called fluorescently labeled KaiB

binding result [3]: binds
binding result [4]: binds
B2: biotinylated KaiB (natural protein, UniProt Q79PF5 1-102, looked up)
chain: B1 chain with C25K
modifications: biotin, amine-reactive (potential sites: lysine residues); EZ-Link-Sulfo-NHS-LC-Biotin at a 50x molar excess to KaiB
notes: KaiB, circadian clock protein of cyanobacteria; In the assays b-KaiB was mixed with unlabeled KaiB (55% b-KaiB, 45% KaiB); also called b-KaiB; source: recombinantly expressed and purified as previously described; biotinylated with EZ-Link-Sulfo-NHS-LC-Biotin
